Substrate: O=c1ccc2nc3ccc(O[C@H]4O[C@H](CO)[C@@H](O)[C@H](O)[C@@H]4O)cc3oc-2c1
Assay: continuous fluorometric kinetic assay of purified enzyme
Type: biochemical, Drosophila melanogaster

B1: Golgi α-mannosidase II (dGMII) (Drosophila melanogaster) (protein)
chain: DDPIRPPLKVARSPRPGQCQDVVQDVPNVDVQMLELYDRMSFKDIDGGVWKQGWNIKYDPLKYNAHHKLKVFVVPHSHNDPGWIQTFEEYYQHDTKHILSNALRHLHDNPEMKFIWAEISYFARFYHDLGENKKLQMKSIVKNGQLEFVTGGWVMPDEANSHWRNVLLQLTEGQTWLKQFMNVTPTASWAIDPFGHSPTMPYILQKSGFKNMLIQRTHYSVKKELAQQRQLEFLWRQIWDNKGDTALFTHMMPFYSYDIPHTCGPDPKVCCQFDFKRMGSFGLSCPWKVPPRTISDQNVAARSDLLVDQWKKKAELYRTNVLLIPLGDDFRFKQNTEWDVQRVNYERLFEHINSQAHFNVQAQFGTLQEYFDAVHQAERAGQAEFPTLSGDFFTYADRSDNYWSGYYTSRPYHKRMDRVLMHYVRAAEMLSAWHSWDGMARIEERLEQARRELSLFQHHDGITGTAKTHVVVDYEQRMQEALKACQMVMQQSVYRLLTKPSIYSPDFSFSYFTLDDSRWPGSGVEDSRTTIILGEDILPSKHVVMHNTLPHWREQLVDFYVSSPFVSVTDLANNPVEAQVSPVWSWHHDTLTKTIHPQGSTTKYRIIFKARVPPMGLATYVLTISDSKPEHTSYASNLLLRKNPTSLPLGQYPEDVKFGDPREISLRVGNGPTLAFSEQGLLKSIQLTQDSPHVPVHFKFLKYGVRSHGDRSGAYLFLPNGPASPVELGQPVVLVTKGKLESSVSVGLPSVVHQTIMRGGAPEIRNLVDIGSLDNTEIVMRLETHIDSGDIFYTDLNGLQFIKRRRLDKLPLQANYYPIPSGMFIEDANTRLTLLTGQPLGGSSLASGELEIMQDRRLASDDERGLGQGVLDNKPVLHIYRLVLEKVNNCVRPSELHPAGYLTSAAHKASQSLLDPLDKFIFAENEWIGAQGQFGGDHPSAREDLDVSVMRRLTKSSAKTQRVGYVLHRTNLMQCGTPEEHTQKLDVCHLLPNVARCERTTLTFLQNLEHLDGMVAPEVCPMETAAYVSSHSS
Km: 200 (±73) μM
